Test results published in patent publication US20240290419A1 (KATHOLIEKE UNIVERSITEIT LEUVEN, published 2024).

Legend:
[1] = biological target: the molecule itself; test: size exclusion chromatography, after EDTA
From the text: (§1) FIG. 29: Size Exclusion Chromatograms for various SAKe mutants. A: S6BE-3 HR on a HiLoad Superdex 75 pg 16/600 column. B: S6BE-3CHR on a HiLoad Superdex 200 pg 16/600 column. C: S2BE-3 HR on a HiLoad Superdex 75 pg 16/600 column. D: S6BE-3 HR-L3 on a HiLoad Superdex 200 pg 16/600 column. E: mEm-v22S6BE-3 HR on a HiLoad Superdex 200 pg 16/600 column. F: dS6AC on a HiLoad Superdex 200 pg 16/600 column.
(§2) Concentrated protein samples were loaded on HiLoad Superdex 75 pg 16/600 or HiLoad Superdex 200 pg 16/600 SEC columns (Cytiva). SEC can also be used to assess biological size. All samples were run with a HEPES buffer (20 mM HEPES, pH 8.0, 200 mM NaCl). Proteins expected to interact with metals were incubated with at least 5 mM EDTA prior to SEC injection.

[2] = biological target: the molecule itself; test: size exclusion chromatography
From the text: as §1, §2

[3] = biological target: the molecule itself; test: SDS PAGE, SEC, XRD; self-association
[4] = biological target: the molecule itself; test: dialysis to pH 4.0 and X-ray diffraction; self-assembly into crystals
From the text: SAKe's symmetry and modifiable interfaces make it an ideal building block for construction of macromolecular assemblies. […] To understand this reversible self-assembly mechanism, the crystals formed at different pH were investigated with XRD. […] At pH 8.0, His (pKa3 6.08-6.90) and Glu (pKa 4.3-4.4) are deprotonated and the net […] charge of S6BE likely causes mutual repulsion. However, at pH 4 these residues are protonated. Due to its symmetry and dipole-like character, S6BE shape and charge complementarity is then expected to allow for self-assembly into a tight hexagonal packing (FIGS. 2 and 11). A series of hydrogen bonds and hydrophobic interactions can then further stabilize the assembly. Similar mechanisms have been reported for the capsid proteins of cowpea chlorotic mosaic virus (CCMV) [Speir et al. Structure 1995, 3, 63-78; Lavelle et al. J. Phys. Chem. B 2009, 113, 3813-3819; Van Eldijk et al. J. Am. Chem. Soc. 2012, 134, 18506-18509].

B1: S6BE-3HR-L3 (other)
chain: NGLIYAVGGYDGSPDGSTHLNSVEAYDPERNEWSLVAPLSTRRSGVGVAVLNGLIYAVGGFATLETESGELVPTELNSVEAYDPHRNEWSLVAPLSTRRSGVGVAVLNGLIYAVGGYDGSPDGSTHLNSVEAYDPERNEWSLVAPLSTRRSGVGVAVLNGLIYAVGGFATLETESGELVPTELNSVEAYDPHRNEWSLVAPLSTRRSGVGVAVLNGLIYAVGGYDGSPDGSTHLNSVEAYDPERNEWSLVAPLSTRRSGVGVAVLNGLIYAVGGFATLETESGELVPTELNSVEAYDPHRNEWSLVAPLSTRRSGVGVAVL
notes: L3 loop graft on the S6BE-3HR scaffold
- binding result [1]: no binding

B2: dS6AC (other)
chain: NGRIYAVGGYDGSPDGHTHLNSVEAYDPETDEWSFVAPMTTPRSGVGVAVLNGRIYAVGGYDGSPDGHTHLNSVEAYDPETDEWSFVAPMTTPRSGVGVAVLNGRIYAVGGYDGSPDGHTHLNSVEAYDPETDEWSFVAPMTTPRSGVGVAVLNGRIYAVGGYDGSPDGHTHLNSVEAYDPETDEWSFVAPMTTPRSGVGVAVLNGRIYAVGGYDGSPDGHTHLNSVEAYDPETDEWSFVAPMTTPRSGVGVAVLNGRIYAVGGYDGSPDGHTHLNSVEAYDPETDEWSFVAPMTTPRSGVGVAVLSGGRIYAVGGYDGSPDGHTHLNSVEAYDPETDEWSFVAPMTTPRSGVGVAVLNGRIYAVGGYDGSPDGHTHLNSVEAYDPETDEWSFVAPMTTPRSGVGVAVLNGRIYAVGGYDGSPDGHTHLNSVEAYDPETDEWSFVAPMTTPRSGVGVAVLNGRIYAVGGYDGSPDGHTHLNSVEAYDPETDEWSFVAPMTTPRSGVGVAVLNGRIYAVGGYDGSPDGHTHLNSVEAYDPETDEWSFVAPMTTPRSGVGVAVLNGRIYAVGGYDGSPDGHTHLNSVEAYDPETDEWSFVAPMTTPRSGVGVAVL
notes: Genetic fusion of two S6AC units via a Ser linker
- binding result [2]: no binding

B3: S2BE-3HR (other)
chain: NGLIYAVGGYDGNTHLNSVEAYDPERNEWSLVAPLSTRRSGVGVAVLNGLIYAVGGYDGNTHLNSVEAYDPHRNEWSLVAPLSTRRSGVGVAVL
notes: Designed two-blade truncation of S6BE-3HR; Expressed from pET-28a with an N-terminal hexahistidine tag that was removed with thrombin
- binding result [3]: binds

B4: S6BE (other)
chain: MNGLIYAVGGYDGNTHLNSVEAYDPERNEWSLVAPLSTRRSGVGVAVLNGLIYAVGGYDGNTHLNSVEAYDPERNEWSLVAPLSTRRSGVGVAVLNGLIYAVGGYDGNTHLNSVEAYDPERNEWSLVAPLSTRRSGVGVAVLNGLIYAVGGYDGNTHLNSVEAYDPERNEWSLVAPLSTRRSGVGVAVLNGLIYAVGGYDGNTHLNSVEAYDPERNEWSLVAPLSTRRSGVGVAVLNGLIYAVGGYDGNTHLNSVEAYDPERNEWSLVAPLSTRRSGVGVAVL
notes: Designed six-blade B-type SAKe propeller; Expressed with an N-terminal His tag that was removed with thrombin; also called SAKe6BE; S6_6E
- binding result [4]: binds
